Measured values from doi:10.1101/2022.11.07.515396, “Functional and structural asymmetry suggest a unifying principle for catalysis in integral membrane-bound pyrophosphatases” (bioRxiv, 2022).

B1: K+-dependent Na+-pumping membrane-bound pyrophosphatase from Thermotoga maritima (TmPPase), wild type (enzyme, UniProt Q9S5X0 1-726, looked up)
chain: MYVAALFFLIPLVALGFAAANFAAVVRKPEGTERMKEISSYIRSGADSFLAHETKAIFKVAIVIAILLMIFTTWQTGVAFLLGAVMSASAGIVGMKMATRANVRVAEAARTTKKIGPALKVAYQGGSVMGLSVGGFALLGLVLVYLIFGKWMGQVDNLNIYTNWLGINFVPFAMTVSGYALGCSIIAMFDRVGGGVYTKAADMAADLVGKTELNLPEDDPRNPATIADNVGDNVGDVAGLGADLLESFVGAIVSSIILASYMFPIYVQKIGENLVHQVPKETIQALISYPIFFALVGLGCSMLGILYVIVKKPSDNPQRELNISLWTSALLTVVLTAFLTYFYLKDLQGLDVVGFRFGAISPWFSAIIGIFSGILIGFWAEYYTSYRYKPTQFLSKSSIEGTGMVISNGLSLGMKSVFPPTLTLVLGILFADYFAGLYGVAIAALGMLSFVATSVSVDSYGPIADNAGGISEMCELDPEVRKITDHLDAVGNTTAAIGKGFAIGSAIFAALSLFASYMFSQISPSDIGKPPSLVLLLNMLDARVIAGALLGAAITYYFSGYLISAVTKAAMKMVDEIRRQAREIPGLLEGKAKPDYNRCIEITSDNALKQMGYPAFIAILTPLVTGFLLGAEFVGGVLIGTVLSGAMLAILTANSGGAWDNAKKYLEAGNLEGYGKGSEPHKALVIGDTVGDPLKDTVGPSLDILIKIMSVVSVIAVSIFKHVHLF
notes: also called K+-dependent Na+-PPase; TmPPase:Mg2; source: S. cerevisiae BJ1991, purified (hot-solve, nickel-NTA, in OGNG)
B2: K+-independent H+-pumping membrane-bound pyrophosphatase from Pyrobaculum aerophilum (PaPPase), wild type (enzyme, UniProt Q8ZWI8 1-721, looked up)
chain: MNMISYALLGVILGISGVIYAVYLAVWVLRQDPGNEKMRFISQAIATGARAYLFRQYRTLAVLLVILAVLILVAIDMPRRTFGLTALAFIVGALGSMLAGYLGMYVTTRSASRVAQAAATGGMGKALLVSWRAGAVMGLSLASIALLLISGFYLVFRSVLPDDWAVPLVALGFGASLVTLFMRVGGGIYTKAADLGADLVGKVEAGIPEDDPRNPGVIADNVGDNVGDVAGMAADVYESYIVTVTAAIFLAAILGLPTQFIEAIILFAALALVATFAGVNLLKTTGVKHPLSSISLAIYATIGLSVVLFFIGAFTLGLDSTKALALAATTSLGAVIAPLIVKITDYYTSYNYGPVRKIAEQAKISPATVIITGYGVGLMSAIPVIAVIVAVLGISYMIGYYTVPVSGFGELSKYLAGIFGTAMASVGLLVVAGIIITADSYGPVSDNAGGVVEMAGLPDEVREITDVLDSVGNTTKATTKGYAIASAALAALVLFIALIFEIVYSASKILGKGIVDMISESLSGLQLINANVLIGAFLGVALVYFFSSRTLEAVGRTAMEIVEEIRRQFREKPGILEWKEQPDYARVVDIATRRALGEFLIPGLAAIVLPLITGLLLGWNALAGLIMGAIVAGVPRALLMANAGGAWDNAKKYIEIQGLKKTEMHKAAVIGDTVGDPMKDTVGPSLNPLIKVLNTLSVVFTYVIVSTNIALGIWPSGLLPF
notes: also called PaPPase:Mg5IDP; K+-independent H+-PPase; source: S. cerevisiae BJ1991, purified (hot-solve in DDM, nickel-NTA, protein in DM for crystals)

Columns and labels:
[1] = target: the molecule itself; test: crystal structure; TmPPase in OGNG with 0.4 mM K4PPi, vapour diffusion, 24-26% v/v PEG 400, 50-60 mM Tris-HCl pH 8.5, 2-3 mM MgCl2, 175 mM KCl, 2 mM DTT, 20 °C; time-resolved cryo-trapping after soaking in Na+ trigger solution (0-3600 seconds); molecular replacement with PDB 4AV3
[2] = target: the molecule itself; test: crystal structure; PaPPase in DM with 2 mM IDP, vapour diffusion, 30-33% v/v PEG 400, 0.1 M MES pH 6.5, 0.05 M LiSO4, 0.05 M NaCl, 20 °C; space group P21; eight datasets combined; molecular replacement with PDB 5LZQ

Protein	stoichiometry N [1]	stoichiometry N [2]
B1	2	
B2		2
